B1: vinculin D1 domain (HVD1) (other)
chain: MPVFHTRTIESILEPVAQQISHLVIMHEEGEVDGKAIPDLTAPVAAVQAAVSNLVRVGKETVQTTEDQILKRDMPPAFIKVENACTKLVQAAQMLQSDPYSVPARDYLIDGSRGILSGTSDLLLTFDEAEVRKIIRVCKGILEYLTVAEVVETMEDLVTYTKNLGPGMTKMAKMIDERQQELTHQEHRVMLVNSMNTVKELLPVLISAMKIFVTTKNSKNQGIEEALKNRNFTVEKMSAEINEIIRVLQLTSWDEDAW
notes: also called D1 domain of vinculin
B2: IpaA 524-633 (A524) (other)
chain: KSKDITKSTTEHRINNKLKVTDANIRNYVTETNADTIDKNHAIYEKAKEVSSALSKVLSKIDDTSAELLTDDISDLKNNNDITAENNNIYKAAKDVTTSLSKVLKNINKD
B3: IpaA 483-633 (A483) (other)
chain: GDTYLTRETIFEASKKVTNSLSNLISLIGTKSGTQERELQEKSKDITKSTTEHRINNKLKVTDANIRNYVTETNADTIDKNHAIYEKAKEVSSALSKVLSKIDDTSAELLTDDISDLKNNNDITAENNNIYKAAKDVTTSLSKVLKNINKD
B4: full-length human vinculin (HV) (other)
chain: MPVFHTRTIESILEPVAQQISHLVIMHEEGEVDGKAIPDLTAPVAAVQAAVSNLVRVGKETVQTTEDQILKRDMPPAFIKVENACTKLVQAAQMLQSDPYSVPARDYLIDGSRGILSGTSDLLLTFDEAEVRKIIRVCKGILEYLTVAEVVETMEDLVTYTKNLGPGMTKMAKMIDERQQELTHQEHRVMLVNSMNTVKELLPVLISAMKIFVTTKNSKNQGIEEALKNRNFTVEKMSAEINEIIRVLQLTSWDEDAWASKDTEAMKRALASIDSKLNQAKGWLRDPSASPGDAGEQAIRQILDEAGKVGELCAGKERREILGTCKMLGQMTDQVADLRARGQGSSPVAMQKAQQVSQGLDVLTAKVENAARKLEAMTNSKQSIAKKIDAAQNWLADPNGGPEGEEQIRGALAEARKIAELCDDPKERDDILRSLGEISALTSKLADLRRQGKGDSPEARALAKQVATALQNLQTKTNRAVANSRPAKAAVHLEGKIEQAQRWIDNPTVDDRGVGQAAIRGLVAEGHRLANVMMGPYRQDLLAKCDRVDQLTAQLADLAARGEGESPQARALASQLQDSLKDLKARMQEAMTQEVSDVFSDTTTPIKLLAVAATAPPDAPNREEVFDERAANFENHSGKLGATAEKAAAVGTANKSTVEGIQASVKTARELTPQVVSAARILLRNPGNQAAYEHFETMKNQWIDNVEKMTGLVDEAIDTKSLLDASEEAIKKDLDKCKVAMANIQPQMLVAGATSIARRANRILLVAKREVENSEDPKFREAVKAASDELSKTISPMVMDAKAVAGNISDPGLQKSFLDSGYRILGAVAKVREAFQPQEPDFPPPPPDLEQLRLTDELAPPKPPLPEGEVPPPRPPPPEEKDEEFPEQKAGEVINQPMMMAARQLHDEARKWSSKGNDIIAAAKRMALLMAEMSRLVRGGSGTKRALIQCAKDIAKASDEVTRLAKEVAKQCTDKRIRTNLLQVCERIPTISTQLKILSTVKATMLGRTNISDEESEQATEMLVHNAQNLMQSVKETVREAEAASIKIRTDAGFTLRWVRKTPWYQ

How the values were obtained:
talin H1-H4 = molecular target: T1, talin H1-H4; assay: size exclusion chromatography; stoichiometry listed for the complex
T1 construct: domain: H1-H4; also called TlnH1-H4; T1nH1-H4
T1 sequence (P26039 482-636): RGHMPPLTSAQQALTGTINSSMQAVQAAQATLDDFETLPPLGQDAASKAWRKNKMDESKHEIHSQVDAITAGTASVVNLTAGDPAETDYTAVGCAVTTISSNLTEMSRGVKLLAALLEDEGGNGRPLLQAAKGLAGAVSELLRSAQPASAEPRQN

[1] = molecular target: B4; assay: solid phase (ELISA) assay, HV coated, A524 in solution
[2] = molecular target: B4; assay: solid phase (ELISA) assay, HV coated, A483 in solution
[3] = molecular target: B1; assay: size exclusion chromatography; stoichiometry listed for the complex
[4] = molecular target: B1; assay: solid phase (ELISA) assay, HVD1 coated, A483 in solution
IpaA 483-633 (A483) = molecular target: B3; assay: solid phase (ELISA) assay, A483 coated, HV in solution
IpaA 524-633 (A524) = molecular target: B2; assay: solid phase (ELISA) assay, A524 coated, HV in solution

B1
stoichiometry (talin H1-H4): 1 molar ratio of the complex (1:1)

B2
EC50 (read off the curve) [1]: ~0.3 nM

B3
EC50 (read off the curve) [2]: 0.2 to 0.3 nM | stoichiometry [3]: 1 molar ratio of the complex (1:1) | EC50 (read off the curve) [4]: ~0.8 nM

B4
EC50 (read off the curve) (IpaA 483-633 (A483)): ~5 nM | EC50 (read off the curve) (IpaA 524-633 (A524)): ~4 nM
